Laboratory results taken from patent US6562591 (RIGEL PHARMACEUTICALS, dated 2003).
Each block holds one binder with its values, some of them ahead of it.

Columns and labels:
Test in all cases: co-immunoprecipitation: anti-HA IP, anti-FLAG blot, Phoenix-A cell lysates
[1] = target: T1, HA-Tnik(WT), full length human Tnik isoform 1 with N-terminal HA epitope tag (human, UniProt Q9UKE5 1-1360)
T1 construct: Expressed transiently in Phoenix-A cells and immunoprecipitated from lysate; also called Tnik1
Text: (§1) Washed precipitates were subjected to SDS-PAGE analysis and Western blotting. Supersignal and Supersignal West Duro substrates (Piers) were used as detection systems for the Western blotting.
(§2) Interaction of Tnik with TRAF2 and NCK—To confirm the interaction of Tnik with TRAF2, N-terminal HA-tagged Tnik was transiently expressed in Phoenix-A cells and HA-Tnik was immunoprecipitated by an anti-HA antibody. The immune complexes were resolved on SDS-PAGE and immunoblotted with an anti-TRAF2 antibody. Endogenous TRAF2 specifically co-immunoprecipitated with HA-Tnik (FIG. 6, top panel). To map the interaction domain on Tnik that mediated its interaction with TRAF2, we constructed several truncated forms of HA-tagged Tnik (FIG. 7) and co-expressed them with FLAG-tagged TRAF2. Anti-HA immunoprecipitates were then blotted with an anti-FLAG antibody to detect the co-immunoprecipitated FLAG-TRAF2. […] Expression levels of the transfected proteins were controlled by immunoblotting cell lysates with anti-HA and anti-FLAG antibodies (FIG. 8, middle and bottom panels).
(§3) We then mapped the domains on TRAF2 that mediated the interaction with Tnik. FLAG-tagged TRAF2 mutants (FIG. 9) were co-expressed with HA-Tnik and the lysates were subjected to anti-HA immunoprecipitation. The immune complexes were then blotted with an anti-FLAG antibody.

[2] = target: T2, FLAG-NCK, full length human NCK with N-terminal FLAG epitope tag (human, UniProt P16333 2-377)
T2 construct: mature; also called FLAG-tagged NCK
Text: as §1, §2, §3

[3] = target: T3, FLAG-TRAF2, full length human Traf2 with N-terminal FLAG epitope tag (human, UniProt Q12933 2-501)
T3 construct: mature; also called FLAG-tagged TRAF2; TRAF2(WT)
T3 sequence: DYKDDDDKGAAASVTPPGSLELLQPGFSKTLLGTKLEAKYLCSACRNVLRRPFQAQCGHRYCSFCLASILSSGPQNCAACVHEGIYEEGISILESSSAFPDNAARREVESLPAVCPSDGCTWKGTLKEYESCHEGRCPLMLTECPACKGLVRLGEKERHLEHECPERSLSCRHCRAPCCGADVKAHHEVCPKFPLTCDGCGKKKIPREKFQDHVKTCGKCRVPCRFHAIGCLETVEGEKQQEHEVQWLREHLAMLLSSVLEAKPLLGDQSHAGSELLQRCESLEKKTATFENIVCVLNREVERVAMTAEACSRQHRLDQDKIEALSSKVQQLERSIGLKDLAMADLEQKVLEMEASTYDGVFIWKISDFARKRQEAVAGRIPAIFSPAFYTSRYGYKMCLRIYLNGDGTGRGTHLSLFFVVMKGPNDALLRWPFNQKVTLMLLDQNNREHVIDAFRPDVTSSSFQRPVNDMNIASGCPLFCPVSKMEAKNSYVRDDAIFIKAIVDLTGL
Text: as §1, §2, §3

- binding result [1]: no binding
B1: FLAG-TRAF2(1-272) (other, human)
chain: DYKDDDDKGMAAASVTPPGSLELLQPGFSKTLLGTKLEAKYLCSACRNVLRRPFQAQCGHRYCSFCLASILSSGPQNCAACVHEGIYEEGISILESSSAFPDNAARREVESLPAVCPSDGCTWKGTLKEYESCHEGRCPLMLTECPACKGLVRLGEKERHLEHECPERSLSCRHCRAPCCGADVKAHHEVCPKFPLTCDGCGKKKIPREKFQDHVKTCGKCRVPCRFHAIGCLETVEGEKQQEHEVQWLREHLAMLLSSVLEAKPLLGDQSHAGSELLQRC

- binding result [2]: no binding
B2: HA-Tnik(C2), GCKH domain of Tnik (other)
chain: AYPYDVPDYARKISVVNVNPTNIRPHSDTPEIRKYKKRFNSEILCAALWGVNLLVGTENGLMLLDRSGQGKVYNLINRRRFQQMDVLEGLNVLVTISGKKNKLRVYYLSWLRNRILHNDPEVEKKQGWITVGDLEGCIHYKVVKYERIKFLVIALKNAVEIYAWAPKPYHKFMAFKSFADLQHKPLLVDLTVEEGQRLKVIFGSHTGFHVIDVDSGNSYDIYIPSHIQGNITPHAIVILPKTDGMEMLVCYEDEGVYVNTYGRITKDVVLQWGEMPTSVAYIHSNQIMGWGEKAIEIRSVETGHLDGVFMHKRAQRLKFLCERNDKVFFASVRSGGSSQVFFMTLNRNSMMNW

- binding result [2]: no binding
- binding result [3]: no binding
B3: HA-Tnik(N1), Tnik mutant with only the kinase domain (enzyme)
chain: AYPYDVPDYAMASDSPARSLDEIDLSALRDPAGIFELVELVGNGTYGQVYKGRHVKTGQLAAIKVMDVTGDEEEEIKQEINMLKKYSHHRNIATYYGAFIKKNPPGMDDQLWLVMEFCGAGSVTDLIKNTKGNTLKEEWIAYICREILRGLSHLHQHKVIHRDIKGQNVLLTENAEVKLVDFGVSAQLDRTVGRRNTFIGTPYWMAPEVIACDENPDATYDFKSDLWSLGITAIEMAEGAPPLCDMHPMRALFLIPRNPAPRLKSKKWSKKFQSFIESCLVKNHSQRPATEQLMKHPFIRDQPNERQVRIQLKDH
